# From the supplement of paper PMC7877785
# ± gives the uncertainty stated by the source.
# Assay: self-splicing fitness, log relative to wild type (ln ratio); higher = more splicing; Tetrahymena group I intron in knt gene, E. coli kanamycin selection, DiMSum; sequences stand for … in CUCUCU…GGAGGGAAAAGUUAUCAGGCAUGCACCUGGUAGCUAGUCUUUAAACCAAUAGAUUGCAUCGGUUUAAAAGGCAAGACCGUCAAAUUGCGGGAAAGGGGUCAACAGCCGUUCAGUACCAAGUCUCAGGGGAAACUUUGAGAUGGCCUUGCAAAGGGUAUGGUAAUAAGCUGACGGACAUGGUCCUAACCACGCAGCCAAGUCCUAAGUCAACAGAUCUUCUGUUGAUAUGGAUGCAGUUCACAGACUAAAUGUCGGUCGGGGAAGAUGUAUUCUUCUCAUAAGAUAUAGUCGGACCUCUCCUUAAUGGGAGCUAGCGGAUGAAGUGAUGCAACACUGGAGCCGCUGGGAACUAAUUUGUAUGCGAAAGUAUAUUGAUUAGUUUUGGAGUACUCGUGGUCG
# Method in brief: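 The eight P1ex-region nucleotides of an intron in the knt kanamycin-resistance gene on pET-22b(+) were all randomised and the library put into E. coli BL21(DE3). Six replicate transformations were grown overnight at 37°C or 30°C on LB agar with or without 25 μg/mL kanamycin, together with 100 μg/mL carbenicillin, 50 μM IPTG and 0.2% rhamnose. Colonies were pooled and amplicon-sequenced on an Illumina HiSeq 2500. Fitness from DiMSum is the error-weighted combination of wild-type-normalised replicate fold changes, kanamycin over none.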
Sequence,self-splicing fitness (ln) (30 °C),self-splicing fitness (ln) (37 °C)
UAUUAGCAAUAUUACGUCUA,-0.265 ± 0.091,0.324 ± 0.12
UAUUAGCAAUAUUACGUUGA,-3.32 ± 0.29,-2.17 ± 0.23
UAUUAGCAAUAUUACGUUUG,-2.12 ± 0.12,-0.749 ± 0.13
UCAAAGCAAUAUUACGAAAG,-3.84 ± 0.31,-1.43 ± 0.18
UCAAAGCAAUAUUACGACAA,-1.96 ± 0.19,-1.22 ± 0.14
UCAAAGCAAUAUUACGACAG,-2.66 ± 0.14,-1.25 ± 0.14
UCAAAGCAAUAUUACGACAU,-3.633 ± 0.023,-2.37 ± 0.036
UCAAAGCAAUAUUACGACGC,-3.24 ± 0.16,-2.09 ± 0.14
UCAAAGCAAUAUUACGACUC,-2.99 ± 0.38,-0.37 ± 0.23
UCAAAGCAAUAUUACGAGAG,-3.08 ± 0.2,-2.21 ± 0.21
UCAAAGCAAUAUUACGAGAU,-4.03 ± 0.33,-1.91 ± 0.2
UCAAAGCAAUAUUACGCAAA,-2.5 ± 0.23,-2.19 ± 0.31
UCAAAGCAAUAUUACGCAAU,-5.01 ± 0.34,-2.79 ± 0.21
UCAAAGCAAUAUUACGCCUC,,-1.91 ± 0.37
UCAAAGCAAUAUUACGCGCC,-2.36 ± 0.24,-1.24 ± 0.28
UCAAAGCAAUAUUACGCUCA,-0.864 ± 0.15,-0.428 ± 0.19
UCAAAGCAAUAUUACGCUGG,-3.55 ± 0.37,-2.28 ± 0.33
UCAAAGCAAUAUUACGGAUA,-3.12 ± 0.18,-1.94 ± 0.14
UCAAAGCAAUAUUACGGCGC,-1.8 ± 0.1,-1.41 ± 0.13
UCAAAGCAAUAUUACGGGCU,-2.34 ± 0.11,-2.55 ± 0.14
UCAAAGCAAUAUUACGGGUU,-3.13 ± 0.15,-2.59 ± 0.15
UCAAAGCAAUAUUACGGUUA,-1.04 ± 0.092,-0.132 ± 0.087
UCAAAGCAAUAUUACGUAGU,-3.63 ± 0.21,-1.69 ± 0.17
UCAAAGCAAUAUUACGUCAC,-3.89 ± 0.36,-3.01 ± 0.4
UCAAAGCAAUAUUACGUCGG,-0.93 ± 0.056,-0.055 ± 0.079

Sequence,self-splicing fitness (ln) (30 °C),self-splicing fitness (ln) (37 °C)
UCAAAGCAAUAUUACGUCUU,-4.01 ± 0.18,-3.03 ± 0.17
UCAAAGCAAUAUUACGUGAG,-0.64 ± 0.046,-0.25 ± 0.071
UCAAAGCAAUAUUACGUGCA,-0.542 ± 0.048,0.0292 ± 0.065
UCAAAGCAAUAUUACGUUCU,-3.76 ± 0.26,-2.87 ± 0.22
UCACAGCAAUAUUACGAAUA,-2.68 ± 0.14,-1.44 ± 0.11
UCACAGCAAUAUUACGACCG,-0.795 ± 0.11,0.149 ± 0.12
UCACAGCAAUAUUACGACGU,-3.44 ± 0.16,-3.53 ± 0.26
UCACAGCAAUAUUACGAGGU,-4.27 ± 0.36,-2.54 ± 0.22
UCACAGCAAUAUUACGCAAC,,-3.26 ± 0.39
UCACAGCAAUAUUACGCACC,-2.35 ± 0.3,
UCACAGCAAUAUUACGCACU,-2.56 ± 0.17,-2.8 ± 0.24
UCACAGCAAUAUUACGCAGC,-3.29 ± 0.2,-2.62 ± 0.25
UCACAGCAAUAUUACGGAAG,-3.85 ± 0.23,-2.3 ± 0.17
UCACAGCAAUAUUACGGACC,,-2.14 ± 0.29
UCACAGCAAUAUUACGGCAA,-1.38 ± 0.1,-1.42 ± 0.097
UCACAGCAAUAUUACGGCGG,-0.848 ± 0.056,0.0491 ± 0.078
UCACAGCAAUAUUACGGGGC,-4.05 ± 0.21,-2.4 ± 0.15
UCACAGCAAUAUUACGGUAU,-3.42 ± 0.19,-3.05 ± 0.18
UCACAGCAAUAUUACGGUGC,-3.04 ± 0.18,-1.47 ± 0.14
UCACAGCAAUAUUACGUAAC,-3.69 ± 0.12,-2.79 ± 0.14
UCACAGCAAUAUUACGUCGU,-3.62 ± 0.19,-1.49 ± 0.22
UCACAGCAAUAUUACGUCUG,-3.02 ± 0.13,-0.735 ± 0.11
UCACAGCAAUAUUACGUGGA,-2.51 ± 0.095,-2.36 ± 0.1
UCACAGCAAUAUUACGUGGC,-3.08 ± 0.18,-2.83 ± 0.26
UCACAGCAAUAUUACGUUUU,-3.72 ± 0.14,-3.09 ± 0.15

Sequence,self-splicing fitness (ln) (30 °C),self-splicing fitness (ln) (37 °C)
UCAGAGCAAUAUUACGAAUA,-2.84 ± 0.32,-2.14 ± 0.38
UCAGAGCAAUAUUACGAAUG,-1.78 ± 0.24,-2.76 ± 0.38
UCAGAGCAAUAUUACGAGCC,,-2.18 ± 0.4
UCAGAGCAAUAUUACGAGGG,-2.95 ± 0.16,-1.94 ± 0.16
UCAGAGCAAUAUUACGAGGU,-3 ± 0.29,-2.5 ± 0.32
UCAGAGCAAUAUUACGAGUA,-3.89 ± 0.46,-1.01 ± 0.14
UCAGAGCAAUAUUACGAGUC,-3.39 ± 0.35,-3.09 ± 0.21
UCAGAGCAAUAUUACGAUGC,-3.8 ± 0.32,-1.68 ± 0.24
UCAGAGCAAUAUUACGCAUA,-3.19 ± 0.42,
UCAGAGCAAUAUUACGCAUG,-3.13 ± 0.3,-2.02 ± 0.21
UCAGAGCAAUAUUACGCCAG,-2.62 ± 0.3,-0.0811 ± 0.28
UCAGAGCAAUAUUACGCCGA,-3.18 ± 0.33,-1.63 ± 0.23
UCAGAGCAAUAUUACGCCGU,,-3.02 ± 0.43
UCAGAGCAAUAUUACGCGGA,-2.96 ± 0.33,-1.64 ± 0.17
UCAGAGCAAUAUUACGCUAG,-2.4 ± 0.12,-2.95 ± 0.28
UCAGAGCAAUAUUACGGAUA,-2.81 ± 0.3,
UCAGAGCAAUAUUACGGCCA,-2.1 ± 0.27,-2.17 ± 0.32
UCAGAGCAAUAUUACGGGUU,-3.76 ± 0.46,-1.58 ± 0.26
UCAGAGCAAUAUUACGUAGG,-0.836 ± 0.12,-0.744 ± 0.17
UCAGAGCAAUAUUACGUAUG,-2.12 ± 0.23,-2.37 ± 0.31
UCAGAGCAAUAUUACGUGCC,-2.62 ± 0.41,
UCAGAGCAAUAUUACGUGCG,-2.9 ± 0.23,-0.826 ± 0.16
UCAGAGCAAUAUUACGUGUG,-2.67 ± 0.13,-2.53 ± 0.13
UCAUAGCAAUAUUACGAACA,-1.78 ± 0.17,-0.838 ± 0.16
UCAUAGCAAUAUUACGACAU,-4.005 ± 0.032,-2.92 ± 0.042

Sequence,self-splicing fitness (ln) (30 °C),self-splicing fitness (ln) (37 °C)
UCAUAGCAAUAUUACGACGC,-1.6 ± 0.19,-0.696 ± 0.21
UCAUAGCAAUAUUACGACGG,-0.375 ± 0.11,-0.184 ± 0.13
UCAUAGCAAUAUUACGACUG,-1.04 ± 0.1,-0.379 ± 0.14
UCAUAGCAAUAUUACGAUAC,-3.23 ± 0.38,
UCAUAGCAAUAUUACGAUAU,-3.76 ± 0.32,-2.4 ± 0.29
UCAUAGCAAUAUUACGAUCG,-0.885 ± 0.09,-0.426 ± 0.12
UCAUAGCAAUAUUACGAUGC,-1.49 ± 0.14,-1.43 ± 0.14
UCAUAGCAAUAUUACGAUUU,-3.45 ± 0.22,-2.24 ± 0.22
UCAUAGCAAUAUUACGCAAU,-3.1 ± 0.19,-2.84 ± 0.28
UCAUAGCAAUAUUACGCAGA,-2.93 ± 0.34,-2.7 ± 0.24
UCAUAGCAAUAUUACGCCAG,-1.74 ± 0.17,-2.4 ± 0.19
UCAUAGCAAUAUUACGCCGC,-3.77 ± 0.33,-1.61 ± 0.41
UCAUAGCAAUAUUACGCUAA,-3.23 ± 0.37,-2.07 ± 0.29
UCAUAGCAAUAUUACGGAAG,,-2.19 ± 0.33
UCAUAGCAAUAUUACGGCAG,-1.31 ± 0.15,-1.07 ± 0.15
UCAUAGCAAUAUUACGGGUA,-1.8 ± 0.094,-1.53 ± 0.079
UCAUAGCAAUAUUACGGUAA,-2.44 ± 0.27,-0.618 ± 0.15
UCAUAGCAAUAUUACGGUAG,-3.28 ± 0.23,-1.77 ± 0.17
UCAUAGCAAUAUUACGGUCA,-1.1 ± 0.16,-0.484 ± 0.16
UCAUAGCAAUAUUACGUCGG,-1.34 ± 0.12,-0.0833 ± 0.11
UCAUAGCAAUAUUACGUCGU,-3.88 ± 0.39,-1.79 ± 0.38
UCAUAGCAAUAUUACGUCUA,-2.05 ± 0.19,-0.601 ± 0.14
UCAUAGCAAUAUUACGUGAA,-2.56 ± 0.091,-1.61 ± 0.1
